Experimental data as given in article PMC9580340.

Target: soluble dimeric human ACE2, Fc-tagged, biotinylated (ACRO Biosystems AC2-H82F9) (human) (UniProt Q9BYF1)
Assay: SPR

| Substance | Kd [nM] |
| --- | --- |
| SARS-CoV-2 B.1.1.529 S2P spike trimer (binding studies) (domain or fragment) | 0.59 to 3.8 |
| SARS-CoV-2 D614G S2P spike trimer (binding studies) (domain or fragment) | 0.73 |
| SARS-CoV-2 WA-1 S2P spike trimer (binding studies) (domain or fragment) | 1.1 |
